Consider one protein from article doi:10.1101/2025.05.02.651258, “The LOTUS domain of Oskar promotes localisation of both protein and mRNA components of Drosophila germ plasm” (bioRxiv, 2025).

Data set [1] deals with the molecule itself. The data set is described as follows: SEC-MALS; Superdex 75 10/300 GL, 10 mg/mL, 20 mM Tris pH 8.0, 200 mM NaCl; data not shown. For orientation: In gel filtration, larger molecules generally elute earlier.
Data set [2] concerns the molecule itself. The data set is described as follows: SEC; analytical SEC, Superose 6 PC 3.2/30, 5.0 mg/mL, 20 mM Tris pH 8.0 with 200, 500 or 1000 mM NaCl, 0.05 mL/min; apparent molecular weight from gel filtration standards.

B1: D. melanogaster Oskar LOTUS domain, residues 139-241 (Losk139–241), purified (domain or fragment)
chain: MTIIESNYISVREEYPDIDSEVRAILLSHAQNGITISSIKSEYRKLTGNPFPLHDNVTDFLLTIPNVTAECSESGKRIFNLKASLKNGHLLDMVLNQKERTSDLEVLFQ
notes: Oskar, D. melanogaster, LOTUS domain residues 139-241 (Losk139–241); numbers on the long isoform (1-606); remnant of the 3C protease cleavage site left at the C-terminus after removal of the decahistidine tag; Crystal form 4 was grown from HgCl2-derivatised protein; also called fly LOTUS domain; source: E. coli BL21(DE3), purified (Ni-NTA, 3C protease cleavage, gel filtration); not shown: His10, …
One may read the stoichiometry N as the number of molecules, sites or subunits per partner or assembly. On to B1, for which the results for the “stoichiometry N” value in data set [1] and in data set [2] were 2 and roughly 2, respectively.
